Patent US5888732

How the values were obtained:
[1] = system: Lambda integrase (Int) + IHF; assay: cleavage_in_vitro; conditions: agarose gel; 50 mM Tris pH 7.8, 70 mM KCl, 5 mM spermidine, 25 C 45 min
[2] = biological target: Lambda integrase (Int) + excisionase (Xis) + IHF (UniProt P03700+P03699+P0A6X7+P0A6Y1); assay: cell_activity
[3] = biological target: Cre recombinase (bacteriophage P1) (UniProt P06956); assay: cell_activity; conditions: 140 without Cre
Sequence of UniProt P06956 (P06956 whole entry): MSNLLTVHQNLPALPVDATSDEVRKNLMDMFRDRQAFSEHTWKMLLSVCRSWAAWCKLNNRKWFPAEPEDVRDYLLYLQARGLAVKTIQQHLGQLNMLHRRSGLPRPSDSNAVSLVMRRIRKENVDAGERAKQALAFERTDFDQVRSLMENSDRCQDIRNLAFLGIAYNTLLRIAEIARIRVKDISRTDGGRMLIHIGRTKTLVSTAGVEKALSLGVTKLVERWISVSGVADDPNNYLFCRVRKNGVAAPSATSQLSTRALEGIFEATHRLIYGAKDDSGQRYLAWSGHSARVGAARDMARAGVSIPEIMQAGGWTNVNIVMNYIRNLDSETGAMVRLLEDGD

Sequence of UniProt P03700 (P03700 whole entry, chain 1 of 4): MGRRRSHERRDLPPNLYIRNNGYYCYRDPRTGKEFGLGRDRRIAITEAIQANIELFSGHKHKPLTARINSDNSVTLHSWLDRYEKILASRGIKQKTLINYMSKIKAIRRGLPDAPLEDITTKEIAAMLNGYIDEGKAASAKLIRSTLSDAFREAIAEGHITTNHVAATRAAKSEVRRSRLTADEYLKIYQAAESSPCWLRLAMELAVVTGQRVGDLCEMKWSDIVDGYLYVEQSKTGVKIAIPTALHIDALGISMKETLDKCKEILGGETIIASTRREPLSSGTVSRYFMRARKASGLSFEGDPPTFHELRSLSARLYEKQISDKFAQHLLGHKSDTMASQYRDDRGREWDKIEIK
Sequence of UniProt P03700 (P03699 whole entry, chain 2 of 4): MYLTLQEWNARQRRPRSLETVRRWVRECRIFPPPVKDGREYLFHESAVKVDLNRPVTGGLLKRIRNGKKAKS
Sequence of UniProt P03700 (P0A6X7 2-99, chain 3 of 4): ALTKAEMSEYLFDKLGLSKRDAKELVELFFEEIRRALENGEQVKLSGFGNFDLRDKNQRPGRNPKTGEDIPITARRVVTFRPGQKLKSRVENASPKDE
Sequence of UniProt P03700 (P0A6Y1 whole entry, chain 4 of 4): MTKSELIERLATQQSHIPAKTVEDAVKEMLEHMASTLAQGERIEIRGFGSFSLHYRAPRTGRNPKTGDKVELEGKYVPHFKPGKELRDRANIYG

attB wild type (pEZC705) ; attP wild type (pEZC726)
activity (% of total DNA converted to cointegrate) [1]: 5

attR1 (pEZC1305) ; attLwt (pEZC1313)
activity (kanamycin resistant colonies) ([2]; with Cre/loxP, background 1): 4

attR2 (pEZC1309) ; attLwt (pEZC1313)
activity (kanamycin resistant colonies) ([2]; with Cre/loxP, background 9): 0

attRwt (lacking P1 and H1; pEZC1301) ; attL1 (pEZC1317)
activity (kanamycin resistant colonies) ([2]; with Cre/loxP, background 1): 47

attRwt (lacking P1 and H1; pEZC1301) ; attL2 (pEZC1321)
activity (kanamycin resistant colonies) ([2]; with Cre/loxP, background 1): 0

attRwt (lacking P1 and H1; pEZC1301) ; attLwt (pEZC1313)
activity (kanamycin resistant colonies) ([2]; in vitro recombination with Cre on loxP as second site, background 1): 147

loxP 511
activity (kanamycin resistant colonies) ([3]; same reaction as loxP, both sites required for product): 760

loxP wild type
activity (kanamycin resistant colonies) ([3]; pEZC602 x pEZC629 via loxP and loxP 511, 37 C, 33 mM NaCl): 760
